Measurements published in patent US20100183544A1 (CSL, published 2010).
One block for each molecule: values may come before it.

How the values were obtained:
IL-11R-Fc [1] = target: T1, IL-11R-Fc; experiment: competition ELISA on IL-11R-Fc; reference murine W147A IL-11
T1 sequence (Q64385 whole entry, species assumed, looked up): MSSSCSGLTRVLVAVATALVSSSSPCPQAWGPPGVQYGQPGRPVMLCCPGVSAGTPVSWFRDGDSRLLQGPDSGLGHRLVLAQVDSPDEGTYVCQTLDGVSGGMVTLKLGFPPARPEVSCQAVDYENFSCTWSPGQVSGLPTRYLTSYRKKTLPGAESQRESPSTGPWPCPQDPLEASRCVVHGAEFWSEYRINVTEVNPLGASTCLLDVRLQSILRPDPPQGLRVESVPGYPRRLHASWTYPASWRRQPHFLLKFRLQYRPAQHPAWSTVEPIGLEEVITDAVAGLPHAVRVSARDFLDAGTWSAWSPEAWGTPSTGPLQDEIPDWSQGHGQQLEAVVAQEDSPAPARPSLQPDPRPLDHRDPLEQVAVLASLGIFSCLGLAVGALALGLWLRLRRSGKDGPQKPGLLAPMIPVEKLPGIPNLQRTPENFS

IL-11R-Fc [2] = target: T1, IL-11R-Fc; experiment: IL-11R binding ELISA; reference non-PEGylated mutein
[3] = target: T2, murine IL-11R on Ba/F3 cells stably transfected with murine IL-11R/gp130 (murine, UniProt Q64385 24-432); experiment: cell-based or functional assay
T2 sequence (looked up): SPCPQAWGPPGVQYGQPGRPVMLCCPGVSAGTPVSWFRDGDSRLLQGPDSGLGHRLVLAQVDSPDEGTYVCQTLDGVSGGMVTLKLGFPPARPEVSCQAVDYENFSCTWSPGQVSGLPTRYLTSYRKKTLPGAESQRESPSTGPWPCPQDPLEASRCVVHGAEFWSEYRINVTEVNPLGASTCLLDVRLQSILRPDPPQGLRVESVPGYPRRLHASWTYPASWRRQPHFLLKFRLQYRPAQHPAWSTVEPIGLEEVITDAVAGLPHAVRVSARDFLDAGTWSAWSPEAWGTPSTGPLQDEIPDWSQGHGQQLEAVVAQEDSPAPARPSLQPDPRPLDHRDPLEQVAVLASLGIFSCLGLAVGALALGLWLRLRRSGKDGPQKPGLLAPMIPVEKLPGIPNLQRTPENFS

fold higher binding affinity than murine W147A IL-11 (IL-11R-Fc [1]): 20 fold
Molecule: IL-11 mutein of SEQ ID NO: 1 (murine IL-11 with AMSAG at positions 58-62 replaced by PAIDY and W147A), N-terminal His-tagged (from UniProt P47873 22-199) (ligand)

fold reduction of IL-11R binding affinity relative to non-PEGylated mutein (IL-11R-Fc [2]): 5 fold
fold reduction against non-PEGylated mutein in antagonism of IL-11-induced Ba/F3 cell proliferation [3]: ~10 fold
B1: PEGylated IL-11 mutein (SEQ ID NO: 3 with a single 40 kDa PEG on the Cys at position 147) (ligand)
chain: VSSDPRADLDSAVLLTRSLLADTRQLAAQMRDKFPADGDHSLDSLPTLPAIDYTLGSLQLPGVLTRLRVDLMSYLRHVQWLRRAGGPSLKTLEPELGALQARLERLLRRLQLLMSRLALPQAAPDQPVIPLGPPASACGSIRAAHAILGGLHLTLDWAVRGLLLLKTRL
modifications: mPEG2-maleimide (single 40 kDa PEG moiety) on the Cys residue introduced at position 147 (mature murine IL-11 numbering)
